{"source": "patent US20030119727A1", "about": "(Genentech, published 2003)"}
{"target": "T1, recombinant human Factor VIIa (human), P08709", "T1 chain 1": "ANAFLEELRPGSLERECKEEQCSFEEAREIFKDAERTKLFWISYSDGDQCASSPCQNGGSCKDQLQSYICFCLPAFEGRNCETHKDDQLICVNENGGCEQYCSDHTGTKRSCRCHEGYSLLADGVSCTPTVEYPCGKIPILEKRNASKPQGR", "T1 chain 2": "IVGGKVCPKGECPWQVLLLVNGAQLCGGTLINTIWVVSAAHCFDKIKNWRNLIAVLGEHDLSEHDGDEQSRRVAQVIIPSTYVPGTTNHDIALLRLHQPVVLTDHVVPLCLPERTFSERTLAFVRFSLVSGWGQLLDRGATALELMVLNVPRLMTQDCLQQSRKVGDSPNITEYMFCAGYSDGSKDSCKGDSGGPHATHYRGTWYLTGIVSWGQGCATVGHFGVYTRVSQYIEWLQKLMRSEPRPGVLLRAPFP", "assay": "competition ELISA", "conditions": "modification not given", "units": {"IC50": "nM"}}
{"binder": "ALCDEPRVDRWYCQFVEG", "note": "[TF120]", "IC50": 109}
{"binder": "ALCDDPRVDRWYCQYVEG", "note": "[TF146]", "IC50": 698}
{"binder": "ALCDDPRVDRWYCQAVEG", "note": "[TF115]", "IC50": 20000}
{"binder": "ALCDDPRVDRHYCQFVEG", "note": "[TF152]", "IC50": "> 100000"}
{"binder": "ALCDDPEVDRWYCQFVEG", "note": "[TF96]", "IC50": 257}
{"binder": "ALCDDPRVDQWYCQFVEG", "note": "[TF98]", "IC50": 2560}
{"binder": "ALCADPRVDRWYCQFVEG", "note": "[TF107]", "IC50": 10}
{"binder": "EGTLCDDPRIDRWYCMFSGV", "note": "[TF58]", "IC50": 2300}
{"binder": "LCDDPRIDRWYCQF", "note": "[TF63]", "IC50": 100000}
{"binder": "ALCDDPRVDRWYCAFVEG", "note": "[TF179]", "IC50": 32}
{"binder": "AMCDDPRVDRWYCQFVEG", "note": "[TF319]", "IC50": 24000}
{"binder": "ALCDDPRVDRWACQFVEG", "note": "[TF145]", "IC50": "> 50000"}
{"binder": "ALCRDPRVDRWYCQFVEG", "note": "[TF127]", "IC50": 28}
{"binder": "AVCDDPRVDRWYCQFVEG", "note": "[TF317]", "IC50": 988}
{"binder": "ALCDDPRVDAWYCQFVEG", "note": "[TF112]", "IC50": 396}
{"binder": "ALCDDPRVDPWYCQFVEG", "note": "[TF113]", "IC50": 10500}
{"binder": "ALCDDPRVNRWYCQFVEG", "note": "[TF97]", "IC50": 1200}
{"binder": "VGALCDDPRVDRWYCQFVEG", "note": "[TF74]", "IC50": 5}
{"binder": "ALCDDPRVDRWYCQLVEG", "note": "[TF189]", "IC50": 438}
{"binder": "VGALCDDPRVDRWYCQFVE", "note": "[TF75]", "IC50": 6}
{"binder": "ALCDDPRVARWYCQFVEG", "note": "[TF110]", "IC50": 330}
{"binder": "ALCDDPRLDRWYCQFVEG", "note": "[TF128]", "IC50": 141}
{"binder": "ALCDDPRVDRFYCQFVEG", "note": "[TF131]", "IC50": 4960}
{"binder": "ALCDDPRVDRWYCQQVEG", "note": "[TF191]", "IC50": 20300}
{"binder": "ALCDDPRVDRAYCQFVEG", "note": "[TF114]", "IC50": "> 50000"}
{"binder": "AACDDPRVDRWYCQFVEG", "note": "[TF155]", "IC50": 9780}
{"binder": "ALCDDPAVDRWYCQFVEG", "note": "[TF109]", "IC50": 110}
{"binder": "ALCDDPRVDKWYCQFVEG", "note": "[TF130]", "IC50": 93}
{"binder": "ALADDPRVDRWYAQFVEG", "note": "[TF119]", "IC50": "> 100000"}
{"binder": "ALCDDPRVDRWYCQFV", "note": "[TF89]", "IC50": 298}
{"binder": "LCDDPRVDRWYCQFVEG", "note": "[TF77]", "IC50": 248}
{"binder": "ALCDDPRIDRWYCQFVEG", "note": "[TF121]", "IC50": 3}
{"binder": "ALCDAPRVDRWYCQFVEG", "note": "[TF108]", "IC50": 104}
{"binder": "ALCDDPRVDRWYCQF", "note": "[TF90]", "IC50": 168}
{"binder": "CDDPRVDRWYCQFVEG", "note": "[TF156]", "IC50": 90300}
{"binder": "LCDDPRIDRWYCMF", "note": "[TF61]", "IC50": 250000}
{"binder": "ALCDDPRVERWYCQFVEG", "note": "[TF111]", "IC50": 147}
{"binder": "ALCDDARVDRWYCQFVEG", "note": "[TF178]", "IC50": 20}
{"binder": "ATCDDPRVDRWYCQFVEG", "note": "[TF318]", "IC50": 75000}
{"binder": "ALCDDPRVDRWYC", "note": "[TF180]", "IC50": 100000}
{"binder": "ALCDDPRVQRWYCQFVEG", "note": "[TF161]", "IC50": 8620}
{"binder": "ALCDDPRADRWYCQFVEG", "note": "[TF129]", "IC50": 716}
{"binder": "AKCDDPRVDRWYCQFVEG", "note": "[TF320]", "IC50": 42000}
{"binder": "ALCDNPRVDRWYCQFVEG", "note": "[TF106]", "IC50": 2}
{"binder": "ALCDDPRVDRWFCQFVEG", "note": "[TF144]", "IC50": 485}
{"binder": "ALCDDPRVSRWYCQFVEG", "note": "[TF162]", "IC50": 359}
{"binder": "ALCDRPRVDRWYCQFVEG", "note": "[TF95]", "IC50": 123}
{"binder": "ALCDDPRVDRWYCYFVEG", "note": "[TF132]", "IC50": 85}
